Data: IntAct's records for PubMed 22796944

B1: Transcription elongation factor SPT5 (Saccharomyces cerevisiae), P27692 (parent)
chain: MSDNSDTNVSMQDHDQQFADPVVVPQSTDTKDENTSDKDTVDSGNVTTTESTERAESTSNIPPLDGEEKEAKSEPQQPEDNAETAATEQVSSSNGPATDDAQATLNTDSSEANEIVKKEEGSDERKRPREEDTKNSDGDTKDEGDNKDEDDDEDDDDDDDDEDDDDEAPTKRRRQERNRFLDIEAEVSDDEDEDEDEEDSELVREGFITHGDDEDDEASAPGARRDDRLHRQLDQDLNKTSEEDAQRLAKELRERYGRSSSKQYRAAAQDGYVPQRFLLPSVDTATIWGVRCRPGKEKELIRKLLKKKFNLDRAMGKKKLKILSIFQRDNYTGRIYIEAPKQSVIEKFCNGVPDIYISQKLLIPVQELPLLLKPNKSDDVALEEGSYVRIKRGIYKGDLAMVDQISENNLEVMLKIVPRLDYGKFDEIDPTTQQRKSRRPTFAHRAPPQLFNPTMALRLDQANLYKRDDRHFTYKNEDYIDGYLYKSFRIQHVETKNIQPTVEELARFGSKEGAVDLTSVSQSIKKAQAAKVTFQPGDRIEVLNGEQRGSKGIVTRTTKDIATIKLNGFTTPLEFPISTLRKIFEPGDHVTVINGEHQGDAGLVLMVEQGQVTFMSTQTSREVTITANNLSKSIDTTATSSEYALHDIVELSAKNVACIIQAGHDIFKVIDETGKVSTITKGSILSKINTARARVSSVDANGNEIKIGDTIVEKVGSRREGQVLYIQTQQIFVVSKKIVENAGVFVVNPSNVEAVASKDNMLSNKMDLSKMNPEIISKMGPPSSKTFQQPIQSRGGREVALGKTVRIRSAGYKGQLGIVKDVNGDKATVELHSKNKHITIDKHKLTYYNREGGEGITYDELVNRRGRVPQARMGPSYVSAPRNMATGGIAAGAAATSSGLSGGMTPGWSSFDGGKTPAVNAHGGSGGGGVSSWGGASTWGGQGNGGASAWGGAGGGASAWGGQGTGATSTWGGASAWGNKSSWGGASTWASGGESNGAMSTWGGTGDRSAYGGASTWGGNNNNKSTRDGGASAWGNQDDGNRSAWNNQGNKSNYGGNSTWGGH
B2: Cell division control protein 73 (Saccharomyces cerevisiae), Q06697 (parent)
chain: MANSLDRLREHLKNGDKLVLKNNEGQSTDDITKATMVETLSSDGSTQDSFPLNEETEIEIDGSLVQLRIIVHCWMNKDSSAADYLADCQNKQLTNVSFLQRTDLINWLSGNTESSQYLKAPGQKGETSDKVDIENKTLAGELSTVKSTTSASLENDSEVSDPVVVETMKHERILVDHNSALRGAKPINFGYLIKDAELKLVQSIKGSLRGSKLPPGHKGAHGRISKTNGSSGGPRKDPIILIPSAASSILTVANIKQFLLESKYVNPRNLPSVPNGLVNIEKNFERISRPIRFIIVDNTRMFTKPEYWDRVVAIFTTGHTWQFNNYQWNSPQELFQRCKGYYFHFAGDSVPQHVQQWNVEKVELDKNKRFKDVEVVRYFWHSLEKELISRGYR
B3: Cell division control protein 73 (Saccharomyces cerevisiae), Q06697 (parent)
chain: B2 chain
partner: B1 chain

Variants of: B1
Conditions: with rtf1_yeast RTF1, P53064
Chain of rtf1_yeast RTF1, P53064 (P53064 whole entry): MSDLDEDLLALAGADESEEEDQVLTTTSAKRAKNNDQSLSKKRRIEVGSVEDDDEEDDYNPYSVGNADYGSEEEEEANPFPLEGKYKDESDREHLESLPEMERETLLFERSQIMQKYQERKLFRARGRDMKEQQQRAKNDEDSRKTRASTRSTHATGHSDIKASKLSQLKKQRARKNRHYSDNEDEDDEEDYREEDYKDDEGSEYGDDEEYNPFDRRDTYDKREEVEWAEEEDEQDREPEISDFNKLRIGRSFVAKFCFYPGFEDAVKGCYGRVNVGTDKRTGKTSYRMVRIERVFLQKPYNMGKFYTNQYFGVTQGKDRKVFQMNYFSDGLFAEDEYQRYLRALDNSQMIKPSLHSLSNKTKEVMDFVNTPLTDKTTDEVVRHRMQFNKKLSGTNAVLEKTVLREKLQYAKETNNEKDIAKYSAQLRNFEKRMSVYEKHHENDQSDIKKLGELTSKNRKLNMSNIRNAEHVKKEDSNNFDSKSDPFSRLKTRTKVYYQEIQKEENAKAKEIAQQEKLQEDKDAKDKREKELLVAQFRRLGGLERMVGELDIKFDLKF

effect of a mutation on the interaction	Variant
decreasing interaction	M1D

Variants of: B2
Conditions: with rpb1_yeast RPO21, P04050
Chain of rpb1_yeast RPO21, P04050 (P04050 whole entry): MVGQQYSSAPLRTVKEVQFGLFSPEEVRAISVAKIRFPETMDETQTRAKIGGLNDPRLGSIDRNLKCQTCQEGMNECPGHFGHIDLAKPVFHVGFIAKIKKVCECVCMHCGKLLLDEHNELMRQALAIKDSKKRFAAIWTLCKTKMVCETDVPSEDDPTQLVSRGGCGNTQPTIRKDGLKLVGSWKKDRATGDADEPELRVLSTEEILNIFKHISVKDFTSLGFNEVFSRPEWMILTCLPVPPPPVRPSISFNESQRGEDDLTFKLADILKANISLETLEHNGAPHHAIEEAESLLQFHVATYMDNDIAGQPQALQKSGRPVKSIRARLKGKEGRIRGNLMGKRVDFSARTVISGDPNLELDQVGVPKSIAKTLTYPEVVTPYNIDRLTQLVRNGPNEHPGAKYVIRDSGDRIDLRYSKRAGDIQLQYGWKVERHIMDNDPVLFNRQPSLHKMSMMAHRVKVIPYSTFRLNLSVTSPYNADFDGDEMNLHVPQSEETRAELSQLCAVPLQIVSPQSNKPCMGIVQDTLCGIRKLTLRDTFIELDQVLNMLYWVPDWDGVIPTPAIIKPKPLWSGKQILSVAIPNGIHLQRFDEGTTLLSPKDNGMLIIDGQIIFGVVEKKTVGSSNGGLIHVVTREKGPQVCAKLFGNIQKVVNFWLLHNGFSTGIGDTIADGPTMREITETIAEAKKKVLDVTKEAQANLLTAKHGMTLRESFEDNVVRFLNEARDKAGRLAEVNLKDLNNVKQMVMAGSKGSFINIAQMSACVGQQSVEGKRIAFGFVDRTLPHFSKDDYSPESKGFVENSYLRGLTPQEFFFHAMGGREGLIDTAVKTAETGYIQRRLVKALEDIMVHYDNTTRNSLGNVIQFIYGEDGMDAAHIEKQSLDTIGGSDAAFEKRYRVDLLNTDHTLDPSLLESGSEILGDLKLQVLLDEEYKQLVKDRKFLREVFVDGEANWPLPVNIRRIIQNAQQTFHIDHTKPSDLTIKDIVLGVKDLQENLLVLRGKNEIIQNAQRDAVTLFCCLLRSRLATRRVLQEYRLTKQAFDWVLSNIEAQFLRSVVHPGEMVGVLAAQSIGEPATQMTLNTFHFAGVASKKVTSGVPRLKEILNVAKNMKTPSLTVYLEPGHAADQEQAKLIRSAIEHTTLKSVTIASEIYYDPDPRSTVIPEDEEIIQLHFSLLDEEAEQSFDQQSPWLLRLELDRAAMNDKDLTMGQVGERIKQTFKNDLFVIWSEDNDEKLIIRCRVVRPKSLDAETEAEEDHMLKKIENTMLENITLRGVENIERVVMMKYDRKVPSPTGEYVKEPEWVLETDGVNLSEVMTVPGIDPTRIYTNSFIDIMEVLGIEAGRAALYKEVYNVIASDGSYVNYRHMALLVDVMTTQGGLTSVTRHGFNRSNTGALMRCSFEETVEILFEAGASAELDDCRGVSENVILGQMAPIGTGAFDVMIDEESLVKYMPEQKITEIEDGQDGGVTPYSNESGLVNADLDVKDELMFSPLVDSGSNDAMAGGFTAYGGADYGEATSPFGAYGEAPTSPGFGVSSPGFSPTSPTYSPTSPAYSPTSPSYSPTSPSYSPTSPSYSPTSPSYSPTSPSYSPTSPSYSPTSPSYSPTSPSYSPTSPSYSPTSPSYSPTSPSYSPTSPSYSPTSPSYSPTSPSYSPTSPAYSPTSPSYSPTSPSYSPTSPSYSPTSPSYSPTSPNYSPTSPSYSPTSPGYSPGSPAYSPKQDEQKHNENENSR

effect of a mutation on the interaction	Variant
disrupting interaction	MANSLDRLREHLKNGDKLVLKNNEGQSTDDITKATMVETLSSDGSTQDSFPLNEETEIEIDGSLVQLRIIVHCWMNKDSSAADYLADCQNKQLTNVSFLQRTDLINWLSGNTESSQYLKAPGQKGETSDKVDIENKTLAGELSTVKSTTSASLENDSEVSDPVVVETMKHERILVDHNSALRGAKPINFGYLIKDAELKLVQSIKGSLRGSKLPPGHKGAHGRISKTNGSSGGPRKDPIILIPSAASSILTVANIKQFLLESKYVNPRNLPSVPNGLVNIEKNFERISRPIRFIIVDNTRMFTKPEYWDRVVAIFTTGHTWQFNNYQWNSPQELFQRCKGYYFHFAGDSVPQHVQQANVEKVELDKNKRFKDVEVVRYFWHSLEKELISRGYR [W357A]
disrupting interaction	MANSLDRLREHLKNGDKLVLKNNEGQSTDDITKATMVETLSSDGSTQDSFPLNEETEIEIDGSLVQLRIIVHCWMNKDSSAADYLADCQNKQLTNVSFLQRTDLINWLSGNTESSQYLKAPGQKGETSDKVDIENKTLAGELSTVKSTTSASLENDSEVSDPVVVETMKHERILVDHNSALRGAKPINFGYLIKDAELKLVQSIKGSLRGSKLPPGHKGAHGRISKTNGSSGGPRKDPIILIPSAASSILTVANIKQFLLESKYVNPRNLPSVPNGLVNIEKNFERISRPIRFIIVDNTRMFTKPEYWDRVVAIFTTGHTWQFNNYQWNSPQELFQRCKGYYFHFAGDSVPQHVQQWNVEKVELDKNKRFKDVEVVRYFAHSLEKELISRGYR [W380A]

Variants of: B3
Conditions: with spt5_yeast SPT5, P27692

effect of a mutation on the interaction	Variant
disrupting interaction	MANSLDRLREHLKNGDKLVLKNNEGQSTDDITKATMVETLSSDGSTQDSFPLNEETEIEIDGSLVQLRIIVHCWMNKDSSAADYLADCQNKQLTNVSFLQRTDLINWLSGNTESSQYLKAPGQKGETSDKVDIENKTLAGELSTVKSTTSASLENDSEVSDPVVVETMKHERILVDHNSALRGAKPINFGYLIKDAELKLVQSIKGSLRGSKLPPGHKGAHGRISKTNGSSGGPRKDPIILIPSAASSILTVANIKQFLLESKYVNPRNLPSVPNGLVNIEKNFERISRPIRFIIVDNTRMFTKPEYWDRVVAIFTTGHTWQFNNYQWNSPQELFQRCKGYYFHFAGDSVPQHVQQANVEKVELDKNKRFKDVEVVRYFWHSLEKELISRGYR [W357A]
disrupting interaction	MANSLDRLREHLKNGDKLVLKNNEGQSTDDITKATMVETLSSDGSTQDSFPLNEETEIEIDGSLVQLRIIVHCWMNKDSSAADYLADCQNKQLTNVSFLQRTDLINWLSGNTESSQYLKAPGQKGETSDKVDIENKTLAGELSTVKSTTSASLENDSEVSDPVVVETMKHERILVDHNSALRGAKPINFGYLIKDAELKLVQSIKGSLRGSKLPPGHKGAHGRISKTNGSSGGPRKDPIILIPSAASSILTVANIKQFLLESKYVNPRNLPSVPNGLVNIEKNFERISRPIRFIIVDNTRMFTKPEYWDRVVAIFTTGHTWQFNNYQWNSPQELFQRCKGYYFHFAGDSVPQHVQQWNVEKVELDKNKRFKDVEVVRYFAHSLEKELISRGYR [W380A]
